# Experimental data: the nanobody polyreactivity screen of Harvey et al. (2022)
# Assay: yeast display, Sf9 membrane polyspecificity reagent, FACS + sequencing; frameworks hold sequencing errors
# How it was run: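 In a synthetic yeast display library (Saccharomyces cerevisiae BJ5465), nanobody expression was induced with galactose for 36–48 hours. FACS gates were set low and high (top ~1%) using anti-HA fluorescence for expression and streptavidin fluorescence for binding of the Sf9 membrane reagent. Each polyreactivity label is drawn from the gate of origin.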
row,Sequence,polyreactivity (PSR sort gate)
1,QVQLVESGGGLVQAGGSLRLSCAASGNIFHKNAMGWYSQAPGKERELVASISWSGGSTYYADSVKGRFTISRDNAKNTVYLQMKSLKPEDTAVYYCATDAFGYPGNRYALNDYWGQGTQVTVSS,low polyreactivity
2,QVQLVESGGGLVQAGGSLRLSSAASGSIFYPYAMGWYRQAPGKARELVSTISWRGGSTYYADSVKGRFTISRDNAKNTDYVQMNRLKPEVTAVYYCAARKRPYSVINGMDYWGQGTQVTVSS,low polyreactivity
3,QVQLVESGGGLVQAGGSLRLSCAASGSTFRNNGMGWYRQAPGKERELVAAITKSGGSTYYADSVKGRFTISRDNAKNTVYLQMNSLKPEDTAVYYCAARFWYNTPRVGWRRYNYWGQGTQVTVSS,high polyreactivity
4,QVQLVESGGGLVQAGGSLRLSCAASVITFGRNTMGWYRQAPGKERELVAAISWNGDSTYYADSVKGRFTISRDNAKNTVYFQMNSLKPEDTAVYFCNADDVFLYQTDGLGDYWGQGTQVTVSS,low polyreactivity
5,QVQLVESGGRLVQAGGSLRLSCAASGRIFIYNAMGWYRQAPGKERELVAAISVSGGRTYYADSVKGRFTISRDNAKNTVYLQMNSLKPEDTAVYYCNKVRVGSLRGYWGQGTQVTVSS,high polyreactivity
6,QVQIVESGGGLVQAGGSLRLSCAASGFTFRVYAMGWYRPAPGKERELVAAISARGGSTYYADSVKVRFTISRDNAKNTVDLQMNSLKPEDTAVYYCAAEPSGKRSKFYYWGQGTQETVSS,high polyreactivity
7,QVQLVESGGGLVQAGGSLRLSCAASGGTFVYSAMGWYRQAPGKERELVAAINWSGGSTYYADSVKGRFTISRDNAKNTVYLQMNILKAEDTAVLLLQRSGLRRSGVWFDYWGQGTQVTVSS,low polyreactivity
8,QDQLVESGGGLVQAGGSLRLSSAASGRIFKRYAMGWYIQAPGKERELVAAITYNSGSTYYADSVKGRFTISRDNAKNTVYLQMNSLKPEDTAVFYCAAEKWSDQSPRGDYWGQGTQVTVSS,low polyreactivity
9,QVQLVESGGGLVQSGGSLRLSCAASGSILYGYAMGWYRQAPGKERELVAAIRWTGGSTYYADSVKGRFTISRDNAKNTVYLQMNSLKPEDTAVYFCAAEYNLRTYWGDYWGQGTQVTVSS,low polyreactivity
10,QVQHVESGGGLVQAGGSLRLSCAASGRIFYAYAMGWYRQAPGKQREMVAAITARGGSTYYADSVKGRFTISRDNAKNTVYLQINSLKPEDTAVYYCAKDTLLETGYEYWGQGTQVTVSS,high polyreactivity
11,QVQLVESGGGLVQAGGSLRLSCAASGGIFGKYVMGWYRQAPGKERELVAGISRSAGITYYADSVKGRFTISRDNAKHTVYLQMNSLIPEDTAVYYCNARAWSYPSYHVGYDYWGQGTQVTVSS,high polyreactivity
12,QVQLVESGGGLVQAGGSLRLSCAASGFSIAYYAMGWYRQEPGKERELVAAISRRGGSTYYADSVKGRFTISRDNAKNTVYLQMNSLKPEDTAVYYCAKAHYLSDYNYWGQGTQVTVSS,high polyreactivity
13,QVQLVESGGGLVQAGGSLRLSCAASGSTFVRNAMGWYRQAPGKERELVAAITWSTGTTYYADSVKGRFTISRDNAKNTVYLQMNSLKPEDTAVYYCAADIYTELFKHDYWGQGTQVTVSS,low polyreactivity
14,QVQLVESGGGLVQAGGSLRLSCAASGLILQYYVMGWYRQAPGKERELVAAITRSGGGTYYADSVKGRFTISRDKAKNTVYLQMNSLIPEDTAVYYCAAQRQYGKFDYWGQGTQVTVSS,high polyreactivity
15,QVQLVESGGGLVQAGGSLRLSCAASGFTFPRYAMGWYRQAPGKERELVAAITSGDRTYYADSVKGRFTISRDNAKNTVYLQMNSLKPEDTAVYYCAKSSPRKSSQKHSFYEYNYWGQGTQVTVSS,high polyreactivity
16,QVQLVESGGGIVQAGGSLRLSCAASGSTSSSDDMGWYRQAPGQERELVADITSGGRTYYADSVKGRFTISRDNAKNTVYLQMNSLKPEATAVYYCAADTIEHYSLVTPTQGKFDSWGQGTQVTVSS,low polyreactivity
17,QVQLVESGGGLVQAGGSLRLICAASGGTFRAYVMGWYTQAPGKERELVAAISRSGTRTYYSDSVKGRFTISRDNAKNTVYFQMNSLKPEDTAVYYCAAAAKSWLFDYWGQGTLVTVSS,high polyreactivity
18,QVQLVESCGGLVQAGGSLRLSCAASGSTFYRYAMGWYRQAPGKERELVARITRTGGITNYADSVKGRFTISRDNAKNTVYLQMNSLKPEDTAVYDCAKTNIRDHYYWGQGTQVTVSS,high polyreactivity
19,QVQLVESGGGLVQAGGSLRLSCAASGYIFIGYAMGWYRQAPGKERELVATITSGGSTNYADSVKGRFTISRDNAKNTVYLQLHSLNPEDTAVDYCAAGRGRYFYSWRYLYAIFDYWGQGTQVTVSS,low polyreactivity
20,QVQLVESGGGLVQAGGSLRLSCAASGRIFYVYAMGWYRAPGKERELVASISYIGGSTYYADSVKGRFTISRDNAKNTVYLQMNSLIPEDTAVYYCATDYYGYTVSFLVASWPDDYWGQGTQVTVSS,low polyreactivity
21,QVQLVESGGRLVQAGGSLRLRCAASGFTFGYNDMGWYRPAPGKERELLAGIRSGDDTNYADSVKGRFTISRDNAKNTDYLQMNSLKPEDTAVYYCAADVVNIATAEYDYCGQGTQVTVSS,low polyreactivity
22,QVQLVESGGGLVQAGGSLRLSCASSGFTFSVYAMGWYREAPGKERELVAAITWRGGSTYYADSVKGRFTISRDNAKNTVYLQMNSLKPEDSAVYYCAVLYPKYGKRYGYWGQGTQVTVSS,high polyreactivity
